# In article PMC10616141:
# Where a chain is given by its changes, count along the chain named.
# B1: STIM1-YFP-WT, Q13586 H395del; V396del (protein)
# chain: LSHSHSEKATGTSSGANSEESTAAEFCRIDKPLCHSEDEKLSFEAVRNIHKLMDDDANGDVDVEESDEFLREDLNYHDPTVKHSTFHGEDKLISVEDLWKAWKSSEVYNWTVDEVVQWLITYVELPQYEETFRKLQLSGHAMPRLAVTNTTMTGTVLKMTDRSHRQKLQLKALDTVLFGPPLLTRHNHLKDFMLVVSIVIGVGGCWFAYIQNRYSKEHMKKMMKDLEGLHRAEQSLHDLQERLHKAQEEHRTVEVEKVHLEKKLRDEINLAKQEAQRLKELREGTENERSRQKYAEEELEQVREALRKAEKELESHSSWYAPEALQKWLQLTHEVEVQYYNIKKQNAEKQLLVAKEGAEKIKKKRNTLFGTFAHSSSLDDVDHKILTAKQALSEVTAALRERLHRWQQIEILCGFQIVNNPGIHSLVAALNIDPSWMGSTRPNPAHFIMTDDVDDMDEEIVSPLSMQSPSLQSSVRQRLTEPQHGLGSQRDLTHSDSESSLHMSDRQRVAPKPPQMSRAADEALNAMTSNGSHRLIEGVHPGSLVEKLPDSPALAKKALLALNHGLDKAHSLMELSPSAPPGGSPHLDSSRSHSPSSPDPDTPSPVGDSRALQASRNTRIPHLAGKKAVAEEDNGSIGEETDSSPGRKKFPLKIFKKPLKK
# B2: STIM1-YFP-WT, Q13586 F394del (protein)
# chain: LSHSHSEKATGTSSGANSEESTAAEFCRIDKPLCHSEDEKLSFEAVRNIHKLMDDDANGDVDVEESDEFLREDLNYHDPTVKHSTFHGEDKLISVEDLWKAWKSSEVYNWTVDEVVQWLITYVELPQYEETFRKLQLSGHAMPRLAVTNTTMTGTVLKMTDRSHRQKLQLKALDTVLFGPPLLTRHNHLKDFMLVVSIVIGVGGCWFAYIQNRYSKEHMKKMMKDLEGLHRAEQSLHDLQERLHKAQEEHRTVEVEKVHLEKKLRDEINLAKQEAQRLKELREGTENERSRQKYAEEELEQVREALRKAEKELESHSSWYAPEALQKWLQLTHEVEVQYYNIKKQNAEKQLLVAKEGAEKIKKKRNTLFGTHVAHSSSLDDVDHKILTAKQALSEVTAALRERLHRWQQIEILCGFQIVNNPGIHSLVAALNIDPSWMGSTRPNPAHFIMTDDVDDMDEEIVSPLSMQSPSLQSSVRQRLTEPQHGLGSQRDLTHSDSESSLHMSDRQRVAPKPPQMSRAADEALNAMTSNGSHRLIEGVHPGSLVEKLPDSPALAKKALLALNHGLDKAHSLMELSPSAPPGGSPHLDSSRSHSPSSPDPDTPSPVGDSRALQASRNTRIPHLAGKKAVAEEDNGSIGEETDSSPGRKKFPLKIFKKPLKK
# B3: STIM1-YFP-WT, Q13586 H395del (protein)
# chain: B2 chain with H372F
# B4: STIM1-YFP-WT, Q13586 V396del; A397del (protein)
# chain: B1 chain with A373H
# B5: STIM1-YFP-WT, Q13586 H398del (protein)
# chain: B2 chain with H372F, V373H, A374V, H375A
# Molecular target: Orai1-CFP, Q96D31
# Sequence (Q96D31 whole entry): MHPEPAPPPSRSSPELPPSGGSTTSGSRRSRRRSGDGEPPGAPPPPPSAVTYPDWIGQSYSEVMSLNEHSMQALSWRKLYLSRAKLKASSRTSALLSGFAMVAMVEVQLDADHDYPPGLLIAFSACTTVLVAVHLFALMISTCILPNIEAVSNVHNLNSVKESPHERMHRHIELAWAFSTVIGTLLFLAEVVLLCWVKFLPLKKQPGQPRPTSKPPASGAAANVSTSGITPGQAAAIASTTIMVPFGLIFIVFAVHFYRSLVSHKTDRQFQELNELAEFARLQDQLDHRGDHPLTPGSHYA
# Assay: E-FRET in cells (Orai1-CFP / STIM1-YFP)
# Conditions: chain shown with the change, HEK-S1S2dKO-O1CFP cells, store-depletion with 2.5 µM ionomycin, parent: est. 0.11, read off a plot
binder,measurement,setting,value
B1,response,n = 87 (WT n = 579),0.074
B2,response,n = 106 (WT n = 579),0.003
B3,response,n = 207 (WT n = 579),0.082
B4,response,n = 107 (WT n = 579),0.034
B5,response,n = 100 (WT n = 579),0.07
